Laboratory results published in patent publication US20210309747A1 (I MAB BIOPHARMA US, published 2021).

Assays:
[1] = biological target: T1, human PD-L1 on Raji cells (human, UniProt Q9NZQ7 19-290); assay: cell-based or functional assay
rat PDL1-His = rat PDL1-His (rat, UniProt D4AE25 19-239); assay: ELISA, PDL1-His coated at 0.5 µg/ml
Protocol: (§1) Human, cyno, rat and mouse PDL1-His proteins were coated at 0.5 μg/ml at 4° C. overnight. […] The plates were washed and then incubated with HRP conjugated mouse anti-human IgG Fc antibody followed by development with TMB substrate and analyzed by spectrophotometer at OD 450 nm.

mouse PDL1-His = biological target: T2, mouse PDL1-His (mouse, UniProt Q9EP73 19-238, limits assumed); assay: ELISA, PDL1-His coated at 0.5 µg/ml
T2 construct: not shown: His tag
Protocol: as §1

His-tagged human PD-L1 [2] = biological target: T3, His-tagged human PD-L1 (human, UniProt Q9NZQ7 19-238, limits assumed); assay: SPR, Biacore T200; B12-01 captured on protein A chip, human PD-L1 25 nM-1.56 nM injected
T3 construct: also called Human PD-L1 protein; Human PDL1-His; not shown: His tag
Source text: (§2) The ligand was allowed to associate for 120 s and dissociate for 600 s.

His-tagged human PD-L1 [3] = biological target: T3, His-tagged human PD-L1; assay: Biacore T200 SPR, B12-01 captured on a protein A chip, human PD-L1-His injected at 25 nM-1.56 nM
Source text: as §2

His-tagged human PD-L1 [4] = biological target: T3, His-tagged human PD-L1; assay: ELISA, plate coated with PDL1-His at 0.5 ug/ml, detection with HRP mouse anti-human IgG Fc, OD 450nm
Protocol: as §1

cyno PDL1-His = cyno PDL1-His (cyno, UniProt G7PSE7 19-238); assay: as above
Protocol: as §1

[5] = biological target: T1, human PD-L1 on Raji cells; assay: flow cytometry blocking assay on Raji-PDL1 cells; blocked ligand: biotinylated Avi- and His-tag human PD1 protein at 3 ug/mL, Streptavidin-PE, MFI
Protocol: Raji cells over-expressing human PDL1 were seeded into the 96 well plate at a concentration of 1×10⁵ cells per well. […] Fluorescence was measured by flow cytometry and analyzed by Flowjo software to determine the mean fluorescence intensities (MFI).

T3 sequence (Q9NZQ7 19-238 limits assumed): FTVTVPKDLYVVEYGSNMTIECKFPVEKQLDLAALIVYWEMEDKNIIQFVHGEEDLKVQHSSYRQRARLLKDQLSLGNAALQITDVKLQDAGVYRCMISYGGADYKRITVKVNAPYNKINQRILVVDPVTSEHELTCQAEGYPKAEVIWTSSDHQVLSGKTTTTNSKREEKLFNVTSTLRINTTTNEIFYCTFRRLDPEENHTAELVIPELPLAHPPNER
T1 sequence (Q9NZQ7 19-290): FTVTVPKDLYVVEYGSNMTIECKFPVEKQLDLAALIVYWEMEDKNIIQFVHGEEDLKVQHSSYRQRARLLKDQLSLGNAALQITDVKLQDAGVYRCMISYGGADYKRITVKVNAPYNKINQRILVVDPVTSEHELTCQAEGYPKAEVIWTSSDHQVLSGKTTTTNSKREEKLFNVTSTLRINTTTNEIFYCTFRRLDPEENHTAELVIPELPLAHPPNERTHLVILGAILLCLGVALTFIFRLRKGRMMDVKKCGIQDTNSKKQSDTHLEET
cyno PDL1-His, sequence (G7PSE7 entry or part of it limits assumed): as the sequence (Q9NZQ7 19-238 limits assumed) above, with A33T, A34S, S62N, R68Q, Q82R, F173L, T185A, T192I, H215L counted along it
T2 sequence (Q9EP73 19-238 limits assumed): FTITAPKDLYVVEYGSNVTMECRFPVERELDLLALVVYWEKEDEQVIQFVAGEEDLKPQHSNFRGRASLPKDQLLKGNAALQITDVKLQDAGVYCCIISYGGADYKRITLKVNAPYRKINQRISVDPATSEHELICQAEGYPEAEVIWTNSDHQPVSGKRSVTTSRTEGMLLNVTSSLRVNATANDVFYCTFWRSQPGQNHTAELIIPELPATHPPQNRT
rat PDL1-His, sequence (D4AE25 entry or part of it limits assumed): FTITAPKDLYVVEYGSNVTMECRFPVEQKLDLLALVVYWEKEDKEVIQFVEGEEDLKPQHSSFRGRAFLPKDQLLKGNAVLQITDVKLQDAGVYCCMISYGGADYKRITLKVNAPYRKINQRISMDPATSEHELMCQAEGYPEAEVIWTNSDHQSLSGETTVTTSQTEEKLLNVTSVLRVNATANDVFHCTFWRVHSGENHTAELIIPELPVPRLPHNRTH

EC50, NF-AT-luciferase activity, PD-1 Jurkat cells with Raji-PD-L1 cells [1]: 0.098 nM
binding result (rat PDL1-His): no binding
binding result (mouse PDL1-His): no binding
Kd (His-tagged human PD-L1 [2]): 0.948 nM
koff (His-tagged human PD-L1 [3]): 0.000795 s⁻¹
kon (His-tagged human PD-L1 [3]): 838000 M⁻¹ s⁻¹
EC50 (read off the curve) (His-tagged human PD-L1 [4]): ~0.03 nM
EC50 (read off the curve) (cyno PDL1-His): ~0.04 nM
EC50 [5]: 0.14 nM
B1: B12-01 (antibody, V domains shown)
VH: QVQLLESGGGLVQPGGSLRLSCAASGFTFSSYWMSWVRQAPGKGLEWVANIKQDGSEKYYVDSVKGRFTISRDNAKNSLYLQMNSLRAEDTAVYYCARVALWDDAFDIWGQGTMVTVSS
VL: DIQMTQSPSTLSASVGDRVIITCRASRGISSWLAWYQQKPGKAPNLLISKASSLESGVPSRFSGSGSGTDFTLTISSLQPEDFATYYCQQSSSIPLTFGGGTKVEIK
notes: Variant of B12 with serine at the C-terminus of VH and DIQM at the N-terminus of VL; captured on protein A and detected with anti-human IgG Fc, so a human IgG; also called B12-01 antibody
